The record followed here is PMC8834124, “Enzymatic Preparation of Gentiooligosaccharides by a Thermophilic and Thermostable β-Glucosidase at a High Substrate Concentration” (Foods, 2022).

Holding throughout (experiment): purified protein
What all share (assay type): biochemical, Thermotoga sp. KOL6

Series [1] relates to O=[N+]([O-])c1ccc(O[C@@H]2O[C@H](CO)[C@@H](O)[C@H](O)[C@H]2O)cc1.
For series [2], the system named is OC[C@H]1O[C@@H](O[C@H]2C(O)O[C@H](CO)[C@@H](O)[C@@H]2O)[C@H](O)[C@@H](O)[C@@H]1O.
The test system of series [3] is OC[C@H]1O[C@@H](O[C@H]2[C@H](O)[C@@H](CO)OC(O)[C@@H]2O)[C@H](O)[C@@H](O)[C@@H]1O.
Series [4] relates to OC[C@H]1O[C@@H](OC[C@H]2OC(O)[C@H](O)[C@@H](O)[C@@H]2O)[C@H](O)[C@@H](O)[C@@H]1O.

On to “β-glucosidase TsBgl1 (Thermotoga sp. KOL6)”, for which the Km in series [1] is 240 µM; in series [2], 3950 µM; in series [3] it was 2170 µM; in series [4] it was 3680 µM. Moreover, the kcat worked out at 124 s⁻¹ in series [1], 218 s⁻¹ in series [2], 295 s⁻¹ in series [3] and 240 s⁻¹ in series [4]. The kcat/Km came out at 509000 M⁻¹ s⁻¹ in series [1], 55300 M⁻¹ s⁻¹ in series [2], 136000 M⁻¹ s⁻¹ in series [3] and 65200 M⁻¹ s⁻¹ in series [4].

For orientation: Km means the concentration of substrate that gives half-maximal velocity. Broadly, the kcat is the number of substrate molecules converted per active site and unit of time at saturation. What is called kcat/Km is the turnover number divided by the Michaelis constant.
